Like-named read-outs stand apart in the source and are kept apart here.
T1: rgyr (reverse gyrase, full-length wild type) (Thermotoga maritima, UniProt O51934)
T1 sequence (O51934 1-1104): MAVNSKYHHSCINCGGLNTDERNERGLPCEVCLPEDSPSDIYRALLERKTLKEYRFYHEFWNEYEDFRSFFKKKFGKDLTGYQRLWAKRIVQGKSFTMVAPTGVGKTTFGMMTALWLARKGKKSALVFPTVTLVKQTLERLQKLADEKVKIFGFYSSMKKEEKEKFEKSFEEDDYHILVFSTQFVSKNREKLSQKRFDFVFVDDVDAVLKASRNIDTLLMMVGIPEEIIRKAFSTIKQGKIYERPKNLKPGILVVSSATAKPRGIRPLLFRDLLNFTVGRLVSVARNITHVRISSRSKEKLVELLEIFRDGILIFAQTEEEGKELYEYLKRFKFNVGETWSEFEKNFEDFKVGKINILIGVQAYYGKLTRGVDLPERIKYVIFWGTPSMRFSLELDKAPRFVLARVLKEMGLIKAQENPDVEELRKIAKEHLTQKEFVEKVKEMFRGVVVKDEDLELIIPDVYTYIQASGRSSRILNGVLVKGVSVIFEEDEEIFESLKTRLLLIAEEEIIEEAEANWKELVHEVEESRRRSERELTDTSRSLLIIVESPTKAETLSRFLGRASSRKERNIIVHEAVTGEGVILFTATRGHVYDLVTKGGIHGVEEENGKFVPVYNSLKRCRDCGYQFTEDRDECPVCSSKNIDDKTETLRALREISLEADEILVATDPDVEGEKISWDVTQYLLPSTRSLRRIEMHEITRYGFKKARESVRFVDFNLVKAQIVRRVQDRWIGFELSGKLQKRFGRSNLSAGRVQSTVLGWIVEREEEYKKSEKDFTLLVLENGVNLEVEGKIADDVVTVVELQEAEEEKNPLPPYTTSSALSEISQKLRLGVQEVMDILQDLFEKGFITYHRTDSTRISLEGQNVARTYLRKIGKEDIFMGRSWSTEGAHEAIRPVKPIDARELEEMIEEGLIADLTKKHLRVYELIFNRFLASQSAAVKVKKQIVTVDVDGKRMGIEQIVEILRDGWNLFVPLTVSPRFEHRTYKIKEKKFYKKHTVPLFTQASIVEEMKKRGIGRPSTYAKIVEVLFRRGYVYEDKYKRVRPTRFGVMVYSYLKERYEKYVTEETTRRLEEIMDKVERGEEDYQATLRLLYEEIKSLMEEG

T2: rgyr_hel_Δlatch (Thermotoga maritima, UniProt O51934 59-388+=G+460-541, internal_change)
T2 sequence: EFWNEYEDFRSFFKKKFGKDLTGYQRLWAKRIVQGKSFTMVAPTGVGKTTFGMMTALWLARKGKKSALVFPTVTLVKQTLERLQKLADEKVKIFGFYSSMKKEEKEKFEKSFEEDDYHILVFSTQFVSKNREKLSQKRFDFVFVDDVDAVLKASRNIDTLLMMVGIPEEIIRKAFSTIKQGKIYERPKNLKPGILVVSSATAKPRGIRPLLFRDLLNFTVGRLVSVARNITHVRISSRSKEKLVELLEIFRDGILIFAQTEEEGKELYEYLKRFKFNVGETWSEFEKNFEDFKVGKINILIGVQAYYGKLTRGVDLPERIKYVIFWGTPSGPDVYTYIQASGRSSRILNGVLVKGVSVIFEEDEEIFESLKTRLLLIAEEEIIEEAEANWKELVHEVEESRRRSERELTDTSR

T3: isolated latch (H3) (Thermotoga maritima, UniProt O51934 388-459)
T3 sequence: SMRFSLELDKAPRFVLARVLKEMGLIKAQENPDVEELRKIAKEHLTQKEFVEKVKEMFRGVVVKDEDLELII

T4: rgyr_Δlatch (Thermotoga maritima, UniProt O51934 1-1104, del389-459)
T4 sequence: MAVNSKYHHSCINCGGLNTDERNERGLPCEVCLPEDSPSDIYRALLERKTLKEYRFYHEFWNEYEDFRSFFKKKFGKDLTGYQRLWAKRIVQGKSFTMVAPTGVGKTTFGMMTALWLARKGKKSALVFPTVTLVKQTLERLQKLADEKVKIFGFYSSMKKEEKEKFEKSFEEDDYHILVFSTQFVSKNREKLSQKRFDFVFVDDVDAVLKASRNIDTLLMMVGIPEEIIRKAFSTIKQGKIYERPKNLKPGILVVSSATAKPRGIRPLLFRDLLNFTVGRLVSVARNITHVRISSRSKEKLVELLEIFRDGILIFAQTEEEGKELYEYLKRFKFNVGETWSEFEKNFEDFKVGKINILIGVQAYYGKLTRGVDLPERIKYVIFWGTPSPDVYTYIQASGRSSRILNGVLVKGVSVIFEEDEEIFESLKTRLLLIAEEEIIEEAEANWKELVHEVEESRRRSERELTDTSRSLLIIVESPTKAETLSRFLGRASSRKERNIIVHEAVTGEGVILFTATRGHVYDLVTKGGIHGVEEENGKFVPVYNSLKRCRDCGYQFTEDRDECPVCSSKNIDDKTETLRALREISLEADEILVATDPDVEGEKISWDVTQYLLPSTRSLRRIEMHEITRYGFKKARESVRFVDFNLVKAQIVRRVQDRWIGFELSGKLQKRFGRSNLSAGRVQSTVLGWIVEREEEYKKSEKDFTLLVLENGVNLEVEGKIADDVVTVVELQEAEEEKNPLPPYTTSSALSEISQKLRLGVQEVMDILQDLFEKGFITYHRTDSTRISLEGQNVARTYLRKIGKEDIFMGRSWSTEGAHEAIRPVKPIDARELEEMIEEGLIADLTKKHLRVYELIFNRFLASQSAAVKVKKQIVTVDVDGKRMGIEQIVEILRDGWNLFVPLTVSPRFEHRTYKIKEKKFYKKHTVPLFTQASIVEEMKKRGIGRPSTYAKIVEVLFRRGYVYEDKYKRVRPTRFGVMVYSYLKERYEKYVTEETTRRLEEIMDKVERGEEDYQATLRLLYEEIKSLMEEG


Legend:
[1] = target: T1, rgyr (reverse gyrase, full-length wild type); assay: fluorescence equilibrium titration; assay type: binding
[2] = target: rgyr_Δlatch (reverse gyrase lacking the latch region) (Thermotoga maritima, UniProt O51934, DEL389-459/INS388G); assay: biochemical
purified protein = substrate: Nc1ncnc2c1ncn2[C@@H]1O[C@H](COP(=O)(O)OP(=O)(O)OP(=O)(O)O)[C@@H](O)[C@H]1O; assay: purified protein; conditions: no DNA, pH 7.5, 10 mM MgCl2, 0.15 M NaCl
rgyr_hel_Δlatch = target: T2, rgyr_hel_Δlatch; assay: fluorescence anisotropy
isolated latch (H3) = target: T3, isolated latch (H3); assay: fluorescence anisotropy
rgyr_Δlatch [3] = target: T4, rgyr_Δlatch; assay: fluorescence anisotropy
rgyr_Δlatch [4] = target: T4, rgyr_Δlatch; assay: fluorescence anisotropy; remark: listed apart in the source

Molecule	Km (purified protein)	kcat (purified protein)	Kd (rgyr_hel_Δlatch)	Kd (isolated latch (H3))	further results
Nc1ncnc2c1ncn2[C@@H]1O[C@H](COP(=O)(O)OP(=O)(O)NP(=O)(O)O)[C@@H](O)[C@H]1O [ADPNP]					Kd [1]: 10 ± 0.8 µM; Kd [2]: 4.7 ± 0.8 µM
rgyr_hel_Δlatch (helicase-like domain lacking the latch) (Thermotoga maritima MSB8; DEL389-459/INS388G) (protein) EFWNEYEDFRSFFKKKFGKDLTGYQRLWAKRIVQGKSFTMVAPTGVGKTTFGMMTALWLARKGKKSALVFPTVTLVKQTLERLQKLADEKVKIFGFYSSMKKEEKEKFEKSFEEDDYHILVFSTQFVSKNREKLSQKRFDFVFVDDVDAVLKASRNIDTLLMMVGIPEEIIRKAFSTIKQGKIYERPKNLKPGILVVSSATAKPRGIRPLLFRDLLNFTVGRLVSVARNITHVRISSRSKEKLVELLEIFRDGILIFAQTEEEGKELYEYLKRFKFNVGETWSEFEKNFEDFKVGKINILIGVQAYYGKLTRGVDLPERIKYVIFWGTPSGPDVYTYIQASGRSSRILNGVLVKGVSVIFEEDEEIFESLKTRLLLIAEEEIIEEAEANWKELVHEVEESRRRSERELTDTSR	67 ± 18 µM	0.02 s⁻¹			
rgyr_Δlatch (reverse gyrase lacking the latch region) (Thermotoga maritima MSB8; DEL389-459/INS388G) (protein) MAVNSKYHHSCINCGGLNTDERNERGLPCEVCLPEDSPSDIYRALLERKTLKEYRFYHEFWNEYEDFRSFFKKKFGKDLTGYQRLWAKRIVQGKSFTMVAPTGVGKTTFGMMTALWLARKGKKSALVFPTVTLVKQTLERLQKLADEKVKIFGFYSSMKKEEKEKFEKSFEEDDYHILVFSTQFVSKNREKLSQKRFDFVFVDDVDAVLKASRNIDTLLMMVGIPEEIIRKAFSTIKQGKIYERPKNLKPGILVVSSATAKPRGIRPLLFRDLLNFTVGRLVSVARNITHVRISSRSKEKLVELLEIFRDGILIFAQTEEEGKELYEYLKRFKFNVGETWSEFEKNFEDFKVGKINILIGVQAYYGKLTRGVDLPERIKYVIFWGTPSGPDVYTYIQASGRSSRILNGVLVKGVSVIFEEDEEIFESLKTRLLLIAEEEIIEEAEANWKELVHEVEESRRRSERELTDTSRSLLIIVESPTKAETLSRFLGRASSRKERNIIVHEAVTGEGVILFTATRGHVYDLVTKGGIHGVEEENGKFVPVYNSLKRCRDCGYQFTEDRDECPVCSSKNIDDKTETLRALREISLEADEILVATDPDVEGEKISWDVTQYLLPSTRSLRRIEMHEITRYGFKKARESVRFVDFNLVKAQIVRRVQDRWIGFELSGKLQKRFGRSNLSAGRVQSTVLGWIVEREEEYKKSEKDFTLLVLENGVNLEVEGKIADDVVTVVELQEAEEEKNPLPPYTTSSALSEISQKLRLGVQEVMDILQDLFEKGFITYHRTDSTRISLEGQNVARTYLRKIGKEDIFMGRSWSTEGAHEAIRPVKPIDARELEEMIEEGLIADLTKKHLRVYELIFNRFLASQSAAVKVKKQIVTVDVDGKRMGIEQIVEILRDGWNLFVPLTVSPRFEHRTYKIKEKKFYKKHTVPLFTQASIVEEMKKRGIGRPSTYAKIVEVLFRRGYVYEDKYKRVRPTRFGVMVYSYLKERYEKYVTEETTRRLEEIMDKVERGEEDYQATLRLLYEEIKSLMEEG	26.5 ± 3.5 µM	0.018 s⁻¹			
60 b ssDNA (ssDNA) DNA: AAGCCAAGCTTCTAGAGTCAGCCCGTGATATTCATTACTTCTTATCCTAGGATCCCCGTT			0.42 ± 0.07 µM	64 ± 29 µM	Kd (rgyr_Δlatch [3]): 33 ± 77 nM
60 bp dsDNA (dsDNA) DNA 1: AAGCCAAGCTTCTAGAGTCAGCCCGTGATATTCATTACTTCTTATCCTAGGATCCCCGTT DNA 2: AACGGGGATCCTAGGATAAGAAGTAATGAATATCACGGGCTGACTCTAGAAGCTTGGCTT			21 ± 5 µM	78 ± 39 µM	Kd (rgyr_Δlatch [4]): 96 ± 19 nM

Source: article PMC3061058 (Nucleic Acids Research, 2010)
